Results from patent US20110158954A1, “METHOD FOR PRODUCING GAMMA DELTA T CELL POPULATION” (priority 2007, published 2011).

How the values were obtained:
[1] = system: Daudi cells; assay: Cytotoxic activity of cultured γδ T cell population, Calcein-AM release; assay type: cell-based, human; conditions: γδ T cells expanded 14 days with pamidronate on immobilized FN fragment; target cells Daudi; E/T 30; 4 hours
Method: The cytotoxic activity was determined for the cells on the fourteenth day from the initiation of culture prepared in Example 3-(1). The cytotoxic activity was evaluated by a method for assaying cytotoxic activity using Calcein-AM [Lichtenfels R. et al., J. Immunol. Methods 172(2), 227-239 (1994)]. […]
The cells on the fourteenth day from the initiation of culture prepared in Example 3-(1) were diluted with an RPMI 1640 medium containing 5% (v/v) human AB serum, 0.1 mM NEAA mixture, 1 mM sodium pyruvate (all manufactured by Cambrex), 2 mM L-glutamine, 10 μg/mL streptomycin sulfate (hereinafter referred to as “5HRPMI”) as effector cells, so as to have a concentration of 3×10^6 cells/mL. […] Upon the addition, the ratio of the effector cells (E) to the Calcein-labeled target cells (T) is expressed as an E/T ratio, and the measurements were made at an E/T ratio of 30. […] Thereafter, 100 μL of the culture supernatant was collected from each well, and the amount of Calcein released into the culture supernatant was determined with a fluorescence plate reader (Mithras LB 940, manufactured by BERTHOLD TECHNOLOGIES) (excited at 485 nm/measured at 535 nm). The “cytotoxic activity (%)” was calculated in accordance with the following formula.
Cytotoxic Activity (%)={(Measured Value in Each Well−Minimum Released Amount)/(Maximum Released Amount−Minimum Released Amount)}×100 […]

[2] = system: γδ T cells; assay: Expansion of γδ T cell population using pamidronate or IPP (Example 1); assay type: cell-based; conditions: human PBMCs, IL-2 20 U/mL, immobilized FN fragment, day 14
Method: Apheresis was performed, or 50 mL blood was collected from human healthy donor obtained with informed consent. The collected blood was then diluted 2-folds with phosphate buffered saline (manufactured by NEXELL or SIGMA, hereinafter referred to as “PBS”), overlaid on Ficoll-paque (manufactured by GE Healthcare Bio-Science), and centrifuged at 600×g for 20 minutes. Peripheral blood mononuclear cells (hereinafter referred to as “PBMCs”) in an intermediate layer were collected with a pipette, and washed. The collected PBMCs were suspended in a storage solution composed of 90% (v/v) FBS (manufactured by MP Biomedicals, LLC)/10% (v/v) DMSO (manufactured by SIGMA), or a storage solution composed of equivolumes of CP-1 (manufactured by KYOKUTO PHARMACEUTICAL INDUSTRIAL CO., LTD.) containing 8% (w/v) human serum albumin (name of formulation: Buminate, manufactured by Baxter Limited, hereinafter referred as to “HSA”) and an RPMI 1640 medium (manufactured by SIGMA), and stored in liquid nitrogen. During expansion of γδ T cells, these stored PBMCs were rapidly melted in water bath at 37° C., and washed with RPMI 1640 medium containing 10 μg/mL DNase (manufactured by Calbiochem), 10% (v/v) human AB serum (manufactured by Cambrex), 2 mM L-glutamine (manufactured by Cambrex), and 100 μg/mL streptomycin sulfate (manufactured by MEIJI SEIKA KAISHA, LTD.) (hereinafter referred to as “10HRPMI+L-Gln”) or Iscove's Modified Dulbecco's Medium (IMDM) (manufactured by Invitrogen) containing 10 μg/mL DNase and 10% (v/v) human AB serum (hereinafter referred to as “10HIMDM”). Thereafter, the number of live cells was calculated by trypan blue staining method. The cells were subjected to each experiment.
A fibronectin fragment (hereinafter referred to as a “FN fragment”) (CH-296 and H296-H296) was immobilized on a culture equipment used in the following experiment. Concretely, a buffer having a pH of 5.0 composed of 2.20% (w/v) sodium citrate dihydrate, 0.80% (w/v) citric acid monohydrate and 2.20% (w/v) glucose (all manufactured by Nakalai Tesque Inc.) (hereinafter referred to as “ACD-A solution (pH 5.0)”), containing CH-296 (final concentration: 25 μg/mL) or H296-H296 (final concentration: 3 μg/mL), was added to a 24-well cell culture plate (manufactured by Becton Dickinson or Corning), in a volume of 240 μL each.
These culture equipments was incubated for 5 hours or more at room temperature. Immediately before use, the ACD-A solution (pH 5.0) containing CH-296 or H296-H296 was removed by aspiration from these culture equipments, and thereafter each well was washed with twice PBS, and then once with RPMI 1640 medium, and the culture equipments were subjected to each experiment. As a control, a plate to which nothing was immobilized was used.
PBMCs prepared in Example 1-(1) were suspended in 10HRPMI+L-Gln or 10HIMDM so as to have a concentration of 1×10^6 cells/mL, to prepare a cell suspension. Thereafter, the above-mentioned cell suspension was added to a plate to which nothing was immobilized or a plate immobilized with CH-296 or H296-H296, prepared in Example 1-(2), in a volume of 1 mL/well each. […]

[3] = medium 10HRPMI + L-Gln, stimulant pamidronate 5 μM

## CH-296: polypeptide comprising a cell binding domain, a heparin binding domain and a CS-1 domain of fibronectin (SEQ ID NO: 13)
[1]
  Cytotoxic Activity (%): 33.23%
[2]; [3]
  Expansion Fold of γδ T Cells (Folds) Fourteenth Day of Culture: ×3.85 Folds

B1: H296-H296: modified fibronectin fragment in which two H-296's are connected to each other (SEQ ID NO: 22) (protein)
chain: AIPAPTDLKFTQVTPTSLSAQWTPPNVQLTGYRVRVTPKEKTGPMKEINLAPDSSSVVVSGLMVATKYEVSVYALKDTLTSRPAQGVVTTLENVSPPRRARVTDATETTITISWRTKTETITGFQVDAVPANGQTPIQRTIKPDVRSYTITGLQPGTDYKIYLYTLNDNARSSPVVIDASTAIDAPSNLRFLATTPNSLLVSWQPPRARITGYIIKYEKPGSPPREVVPRPRPGVTEATITGLEPGTEYTIYVIALKNNQKSEPLIGRKKTDELPQLVTLPHPNLHGPEILDVPSTAMAIPAPTDLKFTQVTPTSLSAQWTPPNVQLTGYRVRVTPKEKTGPMKEINLAPDSSSVVVSGLMVATKYEVSVYALKDTLTSRPAQGVVTTLENVSPPRRARVTDATETTITISWRTKTETITGFQVDAVPANGQTPIQRTIKPDVRSYTITGLQPGTDYKIYLYTLNDNARSSPVVIDASTAIDAPSNLRFLATTPNSLLVSWQPPRARITGYIIKYEKPGSPPREVVPRPRPGVTEATITGLEPGTEYTIYVIALKNNQKSEPLIGRKKTDELPQLVTLPHPNLHGPEILDVPST
modifications: Fibronectin fragment named H296-H296
[2]; medium 10HIMDM, stimulant IPP 5 μM
  Expansion Fold of γδ T Cells (Folds) Fourteenth Day of Culture: ×4.39 Folds
[2]; medium 10HIMDM, stimulant pamidronate 5 μM
  Expansion Fold of γδ T Cells (Folds) Fourteenth Day of Culture: ×3.18 Folds
[2]; medium 10HRPMI + L-Gln, stimulant IPP 5 μM
  Expansion Fold of γδ T Cells (Folds) Fourteenth Day of Culture: ×16.27 Folds
[2]; [3]
  Expansion Fold of γδ T Cells (Folds) Fourteenth Day of Culture: ×5.76 Folds
